Consider three molecules from patent US20170158767A1 (published 2017).

In test [1] the target is T1, human PD-L1 expressed at the cell surface (human, UniProt Q9NZQ7 19-290).
T1 construct: whole, on cells; also called cell surface PD-L1; full-length human PD-L1 on transfected CHO cells
Kind of test: flow cytometry on CHO cells transfected with human PD-L1 (FIG. 32A). The procedure: (§1) Chinese hamster ovary (CHO) cell lines that express recombinant human PD-L1 at the cell surface were developed and used to determine the specificity of PD-L1 human monoclonal antibodies by flow cytometry. CHO cells were transfected with expression plasmids containing full length cDNA encoding transmembrane forms of PD-L1. […] The cells were washed and binding was detected with a FITC-labeled anti-human IgG Ab. Flow cytometric analyses were performed using a FACScan flow cytometry (Becton Dickinson, San Jose, Calif.). The binding was compared to the parent CHO cell line. […] Binding was also tested using varying concentrations of an anti-PD-L1 antibody.
(Flow cytometry measures light scatter and fluorescence of single cells or particles in a stream.)

The target in test [2] is T1, human PD-L1 expressed at the cell …. Kind of test: flow cytometry on CHO cells transfected with human PD-L1 (FIG. 32B). On the procedure: as §1
For test [3] the target is unchanged. Kind of test: flow cytometry, serial dilutions on anti-CD3-activated human T cells. On the procedure: Human or monkey T cells were activated by anti-CD3 antibody to induce PD-L1 expression prior to binding with a human anti-PD-L1 monoclonal antibody. […] An isotype control antibody was used as a negative control. The cells were washed and binding was detected with a FITC-labeled anti-human Ig-kappa light chain Ab. Flow cytometric analyses were performed using a FACScalibur flow cytometer (Becton Dickinson, San Jose, Calif.).

T1 sequence (Q9NZQ7 19-290): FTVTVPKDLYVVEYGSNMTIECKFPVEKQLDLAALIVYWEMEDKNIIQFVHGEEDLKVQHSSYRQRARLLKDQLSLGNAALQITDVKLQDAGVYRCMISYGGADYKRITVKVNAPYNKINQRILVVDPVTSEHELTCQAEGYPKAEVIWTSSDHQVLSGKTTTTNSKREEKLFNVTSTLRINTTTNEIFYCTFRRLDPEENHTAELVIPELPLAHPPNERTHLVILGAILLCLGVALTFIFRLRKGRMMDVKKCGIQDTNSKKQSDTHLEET

B1: 3G10 human monoclonal antibody (antibody, V domains shown)
VH: QVQLVQSGAEVKKPGASVKVSCKASGYTFTDYGFSWVRQAPGQGLEWMGWITAYNGNTNYAQKLQGRVTMTTDTSTSTVYMELRSLRSDDTAVYYCARDYFYGMDVWGQGTTVTVSS
VL: EIVLTQSPATLSLSPGERATLSCRASQSVSSYLVWYQQKPGQAPRLLIYDASNRATGIPARFSGSGSGTDFTLTISSLEPEDFAVYYCQQRSNWPRTFGQGTKVEIK
notes: Fully human IgG kappa from a KM mouse hybridoma; also called HuMAb 3G10
In the case of B1, the binding result in test [1] is listed as “binds”.

B2: 10A5 human monoclonal antibody (antibody, V domains shown)
VH: QVQLVQSGAEVKKPGASVKVSCKASGYTFTSYDVHWVRQAPGQRLEWMGWLHADTGITKFSQKFQGRVTITRDTSASTAYMELSSLRSEDTAVYYCARERIQLWFDYWGQGTLVTVSS
VL: DIQMTQSPSSLSASVGDRVTITCRASQGISSWLAWYQQKPEKAPKSLIYAASSLQSGVPSRFSGSGSGTDFTLTISSLQPEDFATYYCQQYNSYPYTFGQGTKLEIK
notes: Fully human IgG kappa from a KM mouse hybridoma; also called HuMAb 10A5
B2: the binding result in test [2] is reported as “binds”.

B3: 1B12 human monoclonal antibody (antibody, V domains shown)
VH: QVQLVQSGAEVKKPGSSVKVSCKTSGDTFSSYAISWVRQAPGQGLEWMGGIIPIFGRAHYAQKFQGRVTITADESTSTAYMELSSLRSEDTAVYFCARKFHFVSGSPFGMDVWGQGTTVTVSS
VL: not shown
notes: Fully human IgG kappa from a KM mouse hybridoma
Take B3: the binding result in test [3] is recorded as “binds”.
